Paper PMC7530888 (Nucleic Acids Research, 2020)

Experiments:
[1] = tested on: MtbXthA; test: Effect on AP-endonuclease activity of MtbXthA; format: biochemical, M. tuberculosis; details: N1, MtbXthA 10 nM, added protein 5-100 nM; pH 7.8, 37°C, 10 min
[2] = format: physicochemical, M. tuberculosis; details: Superdex 200 increase 10/30; pH 8.0; calibrated with protein standards
[3] = Small angle X-ray scattering; format: physicochemical, M. tuberculosis; details: from P(r); for Dmax: BM29 ESRF, 10°C, pH 8.0
[4] = tested on: MtbXthA; test: SEC co-elution with MtbXthA; format: binding, M. tuberculosis; details: Superdex 200; pH 8.0; SDS-PAGE of fractions
[5] = tested on: nicked duplex DNA substrate (L1); test: In vitro ligation of nicked duplex DNA; format: biochemical; details: L1 10 nM, MtbLigA 5 nM alone; 50 μM NAD^+, pH 7.8, 37°C, 3 min; SD ±2.5
[6] = tested on: nicked duplex DNA substrate (L2); test: Ligation of nicked AP-DNA with 5′p-THF; format: biochemical; details: L2 10 nM, MtbLigA 0.01-20 nM
[7] = tested on: mimic DNA substrate (L3); test: Ligation of true incised abasic site mimic with 5′-dRP; format: biochemical; details: L3 treated with uracil DNA glycosylase; MtbLigA 0.01-20 nM
[8] = tested on: apurinic/ apyrimidinic DNA (AP-DNA) substrate (N1); test: AP-endonuclease assay on THF AP-DNA; format: biochemical; details: no MtbXthA
[9] = tested on: MtbXthA^ID; test: Effect on endonuclease activity of MtbXthA^ID; format: biochemical, M. tuberculosis; details: N1 20 nM, MtbXthA^ID 10 nM, MtbLigA 5-100 nM
[10] = tested on: THF containing AP-DNA (N1); test: Gel shift assay, THF AP-DNA; format: binding; details: N1 10 nM, MtbLigA 0-40 µM

Substance	effect on AP-endonuclease activity of MtbXthA [1]	Stoke's radii [2]	Dmax [3]	Dmax in presence of nicked DNA ([3]; presence of nicked DNA substrate (S1))	interaction with MtbXthA by SEC [4]	DNA ligation [5]	ligation of nicked AP-DNA (in words) [6]	ligated product (in words) [7]	effect on AP-DNA substrate alone (in words) [8]	effect on incision activity of MtbXthA^ID [9]	complex with THF AP-DNA (in words) [10]
BSA: BSA, control for macromolecular crowding [reference compound]	exerted no effect	–	–	–	–	–	–	–	–	–	–
MtbLigA: M. tuberculosis NAD^+-dependent DNA ligase A, full-length	progressive decrease in product formation	4.02 nm	16.7 nm	14.79 nm	co-eluted	75%	could ligate the nicked AP-DNA	progressive increase in the ligated product	no effect on the AP-DNA substrate	reduction in incision activity	did not form a complex with THF containing AP-DNA
MtbLigA+Nicked DNA: MtbLigA in complex with 27-mer nicked DNA (S1)	–	3.19 nm	14.79 nm	–	–	–	–	–	–	–	–
